Measured values published in the supplement of paper PMC9942255.

System: Bacillus subtilis DB104 (SP-AmyQ fusion secretion)
Assay: AmyQ secretion efficiency, weighted average sort bin (1 = best secretion, 10 = worst) (bin number (weighted average, 1-10)); higher = lower secretion efficiency
Outline: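 In this assay, the secretion score is defined as the average bin number weighted by read frequency, normalised to beads per bin, with low-abundance sequences not counted. B. subtilis DB104 cells expressing mature AmyQ behind designed signal peptides (amyE-integrated) were enclosed with fluorescein-starch in ~65 nL alginate beads at about 0.3 cells per bead. Beads grew about 13 h at room temperature, were stained with nile red, and occupied beads went into 10 equally populated green/red fluorescence ratio bins by large-particle flow cytometry, whose amplicons were Illumina-sequenced.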

For MPIKKKVMMCLAVTLVFGSMSFPTLTNWGGFKE, the AmyQ secretion efficiency was 7.59.
MPIKKKVMMCLAVTLVFGSMSSGGFKE was tested, and the AmyQ secretion efficiency was 5.66.
Work on MPIKKKVMMCSKVTLVFGSMSFPTLTNSGGFKE yielded an AmyQ secretion efficiency of 7.22.
Work on MPIKKKVMMCTSGTTSFGSMSFPTLTNSGGFKE yielded an AmyQ secretion efficiency of 7.09.
MPINTFVMMCLAVTLVFGSMSFPTLTNSGGFKE was tested, and the AmyQ secretion efficiency was 7.23.
With MPKKCSVCLWILVLLLSCLSGKSAYAATS the AmyQ secretion efficiency was 2.99.
With MPRKKKQKYRCLAVTLVFGSMSFPTLTNSGGFKE the AmyQ secretion efficiency was 6.94.
In the case of MPSCKQLIVCSLAAILLLIPSVSFAADS, the AmyQ secretion efficiency is reported as 3.5.
For MPTKKKVMKCLAVTLVFGSMSFPTLTNSGGFKE, the AmyQ secretion efficiency was 7.16.
MPVLLSALLLLLFAFEPSASGKKL gave an AmyQ secretion efficiency of 6.19.
Sequence MPYLKRGGLLLVTGLFMSLFAVTATASAQTG has an AmyQ secretion efficiency of 1.51.
In the case of MPYLKRKGYQYQSGLFMSLFAVTATASAQTG, the AmyQ secretion efficiency is reported as 4.4.
With MPYLKRKYRLLVTGLFMSLFAVTATASAQTG the AmyQ secretion efficiency was 1.78.
MPYLKRLSIVLLLLVTGLFMSLFAVTATASAQTG showed an AmyQ secretion efficiency of 1.6.
Sequence MPYLKRMINFNNVLLLLVTGLFMSLFAVTATASAQTG has an AmyQ secretion efficiency of 1.05.
With MPYLKRVLLLLVFFLFMFLFSAVTATASAQTG the AmyQ secretion efficiency was 1.35.
MPYLKRVLLLLVTGLAVTATASAQTG showed an AmyQ secretion efficiency of 1.97.
With MPYLKRVLLLLVTGLFMSLAVTATASAQTG the AmyQ secretion efficiency was 1.16.
MPYLKRVLLLLVTGLFMSLFAVTATASAEDD was tested, and the AmyQ secretion efficiency was 3.73.
Work on MPYLKRVLLLLVTGLFMSLFAVTATASAQDD yielded an AmyQ secretion efficiency of 3.08.
With MPYLKRVLLLLVTGLFMSLFAVTATASAQRK the AmyQ secretion efficiency was 2.03.
Work on MPYLKRVLLLLVTGLFMSLFAVTATASAQTD yielded an AmyQ secretion efficiency of 1.91.
Sequence MPYLKRVLLLLVTGLFMSLFAVTATASAQTK has an AmyQ secretion efficiency of 1.71.
Work on MPYLKRVLLLLVTGLFMSLFAVTATASARRR yielded an AmyQ secretion efficiency of 7.69.
MPYLKRVLLLLVTGLFMSLFAVTATASCQTG showed an AmyQ secretion efficiency of 1.26.
Work on MPYLKRVLLLLVTGLFMSLFAVTATASDQTG yielded an AmyQ secretion efficiency of 1.01.
Work on MPYLKRVLLLLVTGLFMSLFAVTATASEQTG yielded an AmyQ secretion efficiency of 1.36.
MPYLKRVLLLLVTGLFMSLFAVTATASFQTG gave an AmyQ secretion efficiency of 2.53.
For MPYLKRVLLLLVTGLFMSLFAVTATASGQTG, the AmyQ secretion efficiency was 1.24.
For MPYLKRVLLLLVTGLFMSLFAVTATASHQTG, the AmyQ secretion efficiency was 1.34.
MPYLKRVLLLLVTGLFMSLFAVTATASIQTG showed an AmyQ secretion efficiency of 1.67.
MPYLKRVLLLLVTGLFMSLFAVTATASKQTG showed an AmyQ secretion efficiency of 1.26.
With MPYLKRVLLLLVTGLFMSLFAVTATASLQTG the AmyQ secretion efficiency was 1.81.
Sequence MPYLKRVLLLLVTGLFMSLFAVTATASMQTG has an AmyQ secretion efficiency of 1.29.
For MPYLKRVLLLLVTGLFMSLFAVTATASNQTG, the AmyQ secretion efficiency was 1.29.
MPYLKRVLLLLVTGLFMSLFAVTATASPQTG gave an AmyQ secretion efficiency of 1.86.
Sequence MPYLKRVLLLLVTGLFMSLFAVTATASQQTG has an AmyQ secretion efficiency of 1.51.
For MPYLKRVLLLLVTGLFMSLFAVTATASRQTG, the AmyQ secretion efficiency was 1.19.
MPYLKRVLLLLVTGLFMSLFAVTATASSQTG gave an AmyQ secretion efficiency of 1.19.
In the case of MPYLKRVLLLLVTGLFMSLFAVTATASTQTG, the AmyQ secretion efficiency is reported as 1.44.
MPYLKRVLLLLVTGLFMSLFAVTATASVQTG was tested, and the AmyQ secretion efficiency was 1.13.
With MPYLKRVLLLLVTGLFMSLFAVTATASWQTG the AmyQ secretion efficiency was 2.84.
With MPYLKRVLLLLVTGLFMSLFAVTATASYQTG the AmyQ secretion efficiency was 1.77.
Sequence MPYLKRVLLLLVTGLFMSLFAVTATCSAQTG has an AmyQ secretion efficiency of 1.27.
In the case of MPYLKRVLLLLVTGLFMSLFAVTATDSAQTG, the AmyQ secretion efficiency is reported as 6.72.
In the case of MPYLKRVLLLLVTGLFMSLFAVTATESAQTG, the AmyQ secretion efficiency is reported as 4.4.
MPYLKRVLLLLVTGLFMSLFAVTATFSAQTG showed an AmyQ secretion efficiency of 4.6.
MPYLKRVLLLLVTGLFMSLFAVTATGSAQTG showed an AmyQ secretion efficiency of 1.13.
Work on MPYLKRVLLLLVTGLFMSLFAVTATHSAQTG yielded an AmyQ secretion efficiency of 6.96.
In the case of MPYLKRVLLLLVTGLFMSLFAVTATISAQTG, the AmyQ secretion efficiency is reported as 1.51.
MPYLKRVLLLLVTGLFMSLFAVTATKSAQTG was tested, and the AmyQ secretion efficiency was 4.38.
In the case of MPYLKRVLLLLVTGLFMSLFAVTATLSAQTG, the AmyQ secretion efficiency is reported as 1.38.
With MPYLKRVLLLLVTGLFMSLFAVTATMSAQTG the AmyQ secretion efficiency was 1.29.
With MPYLKRVLLLLVTGLFMSLFAVTATPSAQTG the AmyQ secretion efficiency was 4.75.
Sequence MPYLKRVLLLLVTGLFMSLFAVTATQSAQTG has an AmyQ secretion efficiency of 3.84.
MPYLKRVLLLLVTGLFMSLFAVTATRSAQTG showed an AmyQ secretion efficiency of 3.54.
MPYLKRVLLLLVTGLFMSLFAVTATSSAQTG showed an AmyQ secretion efficiency of 1.26.
MPYLKRVLLLLVTGLFMSLFAVTATVSAQTG gave an AmyQ secretion efficiency of 1.43.
In the case of MPYLKRVLLLLVTGLFMSLFAVTATWSAQTG, the AmyQ secretion efficiency is reported as 6.1.
For MPYLKRVLLLLVTGLFMSLFAVTATYSAQTG, the AmyQ secretion efficiency was 3.91.
With MPYLKRVLLLLVTGLFMSLFEEEATASAQTG the AmyQ secretion efficiency was 1.12.
In the case of MPYLKRVLLLLVTGLFMSLFFLIAVTATASAQTG, the AmyQ secretion efficiency is reported as 1.09.
Sequence MPYLKRVLLLLVTGLFMSLFGDTATASAQTG has an AmyQ secretion efficiency of 1.23.
MPYLKRVLLLLVTGLFMSLFIFLIVISAVTATASAQTG showed an AmyQ secretion efficiency of 1.25.
With MPYLKRVLLLLVTGLFMSLFRKKATASAQTG the AmyQ secretion efficiency was 7.42.
For MPYLKRVLLLLVTGLFMSLFRKRRKRASAQTG, the AmyQ secretion efficiency was 6.94.
In the case of MPYLKRVRKLLVTGLFMSLFAVTATASAQTG, the AmyQ secretion efficiency is reported as 1.73.
Sequence MPYLKRVRRRRRRGLFMSLFAVTATASAQTG has an AmyQ secretion efficiency of 6.28.
Sequence MPYLKRVRRRRVTGLFMSLFAVTATASAQTG has an AmyQ secretion efficiency of 2.37.
Work on MPYLMMVLLLLVTGLFMSLFAVTATASAQTG yielded an AmyQ secretion efficiency of 1.47.
Work on MPYRKRRRVLLLLVTGLFMSLFAVTATASAQTG yielded an AmyQ secretion efficiency of 1.13.
MQKKWRRRLIQFAVMLSVLSTFTYSASAVGV was tested, and the AmyQ secretion efficiency was 3.56.
For MQLGKKLSVAVAASFMSLSISLPGVQAAEG, the AmyQ secretion efficiency was 2.25.
Sequence MQNRLFRVCFLAALIMAFTLPNSVYAQKP has an AmyQ secretion efficiency of 1.12.
With MQRKRLLTIYIMLLGLIAWFPGAAQAEEK the AmyQ secretion efficiency was 1.93.
With MQRRQRYRQRVIVIAALITFNVRNASPG the AmyQ secretion efficiency was 8.93.
Sequence MRFTKFMSIVVGFLSVLGLAAVFPLTAQAEKA has an AmyQ secretion efficiency of 2.72.
With MRFTKFTFIMITVVGFLSVLGLAAVFPLTAQAEKA the AmyQ secretion efficiency was 1.81.
MRFTKKKTFLSVLGLAAVFPLTAQAEKA showed an AmyQ secretion efficiency of 3.64.
With MRFTKNVVGFLSVLGLAAVFPLTAQAEKA the AmyQ secretion efficiency was 2.41.
MRFTKTRGQRQVLGLAAVFPLTAQAEKA showed an AmyQ secretion efficiency of 7.51.
MRFTKTVGFLSVLGLAAVFPLTAQAEKA showed an AmyQ secretion efficiency of 2.59.
MRFTKVRRKKSVLGLAAVFPLTAQAEKA gave an AmyQ secretion efficiency of 7.85.
Work on MRFTKVRRRRKKLGLAAVFPLTAQAEKA yielded an AmyQ secretion efficiency of 7.25.
For MRFTKVVGFLSVLGLAADEDLTAQAEKA, the AmyQ secretion efficiency was 3.78.
Work on MRFTKVVGFLSVLGLAAEDEEEEAQAEKA yielded an AmyQ secretion efficiency of 7.84.
MRFTKVVGFLSVLGLAAKKKLTAQAEKA gave an AmyQ secretion efficiency of 7.51.
MRFTKVVGFLSVLGLAAKKRKRRAQAEKA was tested, and the AmyQ secretion efficiency was 7.6.
For MRFTKVVGFLSVLGLAASSILLLFSIVFPLTAQAEKA, the AmyQ secretion efficiency was 2.15.
Sequence MRFTKVVGFLSVLGLAATTTFIVFPLTAQAEKA has an AmyQ secretion efficiency of 1.5.
With MRFTKVVGFLSVLGLAAVAQAEKA the AmyQ secretion efficiency was 5.78.
Sequence MRFTKVVGFLSVLGLAAVFPLTAQAADD has an AmyQ secretion efficiency of 3.85.
For MRFTKVVGFLSVLGLAAVFPLTAQAAKR, the AmyQ secretion efficiency was 5.46.
Sequence MRFTKVVGFLSVLGLAAVFPLTAQAAPK has an AmyQ secretion efficiency of 1.91.
MRFTKVVGFLSVLGLAAVFPLTAQAEED showed an AmyQ secretion efficiency of 1.95.
MRFTKVVGFLSVLGLAAVFPLTAQARKR gave an AmyQ secretion efficiency of 7.26.
MRFTKVVGFLSVLGLAAVFPLTAQGEKA showed an AmyQ secretion efficiency of 2.12.
In the case of MRFTKVVGFLSVLGLAAVFPLTAQREKA, the AmyQ secretion efficiency is reported as 5.37.
Work on MRFTKVVGFLSVLGLAAVFPLTAQTEKA yielded an AmyQ secretion efficiency of 5.69.
In the case of MRFTKVVGFLSVLGLAAVFPLTASSAAQAEKA, the AmyQ secretion efficiency is reported as 1.25.
MRFTKVVGFLSVLGLAAVFPLTCQAEKA showed an AmyQ secretion efficiency of 2.19.
MRFTKVVGFLSVLGLAAVFPLTSQAEKA gave an AmyQ secretion efficiency of 4.09.
For MRFTKVVGFLSVLGLAAVFPLTTQAEKA, the AmyQ secretion efficiency was 4.74.
For MRFTKVVGFLSVLGLAAVFPLTVQAEKA, the AmyQ secretion efficiency was 3.18.
Sequence MRFTKVVGFLSVLGVFPLTAQAEKA has an AmyQ secretion efficiency of 5.6.
MRGKSAKRLSLIMLIAGFLISFSFQM showed an AmyQ secretion efficiency of 7.38.
MRGKSAVLLSLIMLIAGFLDDDEEDSFSFQM was tested, and the AmyQ secretion efficiency was 8.01.
Sequence MRGKSAVLLSLIMLIAGFLDEESFSFQM has an AmyQ secretion efficiency of 5.97.
With MRGKSAVLLSLIMLIAGFLIDFSFQM the AmyQ secretion efficiency was 7.67.
MRGKSAVLLSLIMLIAGFLIEFSFQM was tested, and the AmyQ secretion efficiency was 8.38.
Work on MRGKSAVLLSLIMLIAGFLIHFSFQM yielded an AmyQ secretion efficiency of 6.42.
MRGKSAVLLSLIMLIAGFLIISFSFQM was tested, and the AmyQ secretion efficiency was 8.29.
Work on MRGKSAVLLSLIMLIAGFLINFSFQM yielded an AmyQ secretion efficiency of 6.91.
For MRGKSAVLLSLIMLIAGFLIPFSFQM, the AmyQ secretion efficiency was 7.72.
For MRGKSAVLLSLIMLIAGFLISFDFQM, the AmyQ secretion efficiency was 6.6.
Sequence MRGKSAVLLSLIMLIAGFLISFEFQM has an AmyQ secretion efficiency of 5.74.
For MRGKSAVLLSLIMLIAGFLISFHFQM, the AmyQ secretion efficiency was 7.78.
MRGKSAVLLSLIMLIAGFLISFLFQM gave an AmyQ secretion efficiency of 7.41.
MRGKSAVLLSLIMLIAGFLISFMFQM gave an AmyQ secretion efficiency of 7.73.
For MRGKSAVLLSLIMLIAGFLISFNFQM, the AmyQ secretion efficiency was 6.3.
With MRGKSAVLLSLIMLIAGFLISFPFQM the AmyQ secretion efficiency was 5.95.
MRGKSAVLLSLIMLIAGFLISFQFQM gave an AmyQ secretion efficiency of 7.36.
For MRGKSAVLLSLIMLIAGFLISFSFKK, the AmyQ secretion efficiency was 6.28.
MRGKSAVLLSLIMLIAGFLISFSFQD showed an AmyQ secretion efficiency of 6.77.
MRGKSAVLLSLIMLIAGFLISFSFQK was tested, and the AmyQ secretion efficiency was 9.36.
MRGKSAVLLSLIMLIAGFLISFTFQM showed an AmyQ secretion efficiency of 6.75.
MRGKSAVLLSLIMLIAGFLISFVFQM gave an AmyQ secretion efficiency of 6.98.
